Data taken from patent US20260258113A1, “BETA GLOBIN MIMETIC PEPTIDES AND THEIR USE” (THE UNITED STATES OF AMERICA, AS REPRESENTED BY THE …, priority 2022, published 2026).

Target: endothelial nitric oxide synthase (eNOS), endogenous, in human resistance arteries (human) (UniProt P29474)
Assay: cell-based or functional assay

Sequence of endothelial nitric oxide synthase (eNOS), endogenous, in human resistance arteries (human) (P29474 2-1203 limits assumed): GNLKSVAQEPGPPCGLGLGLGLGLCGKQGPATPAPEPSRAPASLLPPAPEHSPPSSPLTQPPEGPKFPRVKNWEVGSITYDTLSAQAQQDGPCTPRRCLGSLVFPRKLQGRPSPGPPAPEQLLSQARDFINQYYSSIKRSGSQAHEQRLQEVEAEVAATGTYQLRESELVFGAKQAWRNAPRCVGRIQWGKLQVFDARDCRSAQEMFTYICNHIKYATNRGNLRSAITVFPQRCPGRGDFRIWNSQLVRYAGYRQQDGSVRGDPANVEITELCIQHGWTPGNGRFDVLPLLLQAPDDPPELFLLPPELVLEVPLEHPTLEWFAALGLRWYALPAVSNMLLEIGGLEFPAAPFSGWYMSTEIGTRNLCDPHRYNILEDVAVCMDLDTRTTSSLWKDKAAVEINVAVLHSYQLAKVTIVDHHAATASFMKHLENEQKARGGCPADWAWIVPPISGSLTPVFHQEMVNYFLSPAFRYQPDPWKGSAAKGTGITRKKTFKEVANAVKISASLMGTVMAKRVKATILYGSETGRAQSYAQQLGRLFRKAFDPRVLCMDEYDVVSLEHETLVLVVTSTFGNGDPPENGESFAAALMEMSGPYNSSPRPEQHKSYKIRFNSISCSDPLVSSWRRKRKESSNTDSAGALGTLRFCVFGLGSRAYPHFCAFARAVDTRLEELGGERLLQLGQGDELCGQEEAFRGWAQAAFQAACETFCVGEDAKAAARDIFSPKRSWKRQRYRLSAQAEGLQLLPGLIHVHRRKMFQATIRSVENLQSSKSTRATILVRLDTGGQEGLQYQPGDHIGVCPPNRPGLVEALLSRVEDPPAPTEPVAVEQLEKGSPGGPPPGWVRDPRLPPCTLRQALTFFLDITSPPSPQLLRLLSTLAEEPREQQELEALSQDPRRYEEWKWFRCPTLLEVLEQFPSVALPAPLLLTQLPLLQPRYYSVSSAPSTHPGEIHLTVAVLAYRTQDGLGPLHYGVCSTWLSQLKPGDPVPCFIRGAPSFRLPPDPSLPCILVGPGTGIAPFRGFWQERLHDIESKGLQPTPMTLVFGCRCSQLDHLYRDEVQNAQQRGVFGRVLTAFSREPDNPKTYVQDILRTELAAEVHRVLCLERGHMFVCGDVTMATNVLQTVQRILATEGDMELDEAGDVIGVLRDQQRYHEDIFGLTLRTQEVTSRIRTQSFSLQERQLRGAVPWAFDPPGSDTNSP

alpha globin mimetic peptide HbαX with N-terminal HIV-tat tag
Bottom (4-PL minimum of phenylephrine-induced constriction, % of baseline diameter), PE + Mimetic + LNAME, human omental arteries, pressure myography (% of baseline diameter): 41.9
Bottom (4-PL minimum of phenylephrine-induced constriction, % of baseline diameter), PE + Mimetic, human omental arteries, pressure myography, peptide 5 µmol/L (% of baseline diameter): 64.6
